Results reported in FireProtDB (doi:10.1007/s00775-020-01777-0).

B1: Cytochrome c-553, B8C6L5 (parent)
chain: MKLTIVAALIASASAWTTPKSFESVKAAVAGAAVTAGVAVSPAFAGDVGAGEQIFNANCAACHAGGQNVIMPDKTLEKEALEQYLAGGRNEKAVMTQVTNGKNAMPAFGGRLSDEDIANVASYVIATSEAGWD

Variants of: B1
Conditions: Thalassiosira pseudonana; pH 7.4; Thermal; UV/Vis spectroscopy; HEPES; transition: 2; reversible: > 90% (Yes); whole UniProt chain shown

A86S
Tm: 38.9 °C
unfolding enthalpy (van 't Hoff): 43.7 kcal/mol

A93S
Tm: 35.4 °C
unfolding enthalpy (van 't Hoff): 45.9 kcal/mol

A126S
Tm: 35.1 °C
unfolding enthalpy (van 't Hoff): 40.8 kcal/mol

A93S A126S
Tm: 32.2 °C
unfolding enthalpy (van 't Hoff): 38.2 kcal/mol
